Assay results as given in patent publication US20220211812A1 (Bristol-Myers Squibb, published 2022).
Square brackets hold non-standard residues; d marks the D form. Ends that are not written are not given here. Phe(4-Ac) = CC(=O)c1ccc(C[C@H](N)C(=O)O)cc1

T1: human RXFP1 receptor (human, UniProt Q9HBX9 1-757)
T1 sequence (looked up): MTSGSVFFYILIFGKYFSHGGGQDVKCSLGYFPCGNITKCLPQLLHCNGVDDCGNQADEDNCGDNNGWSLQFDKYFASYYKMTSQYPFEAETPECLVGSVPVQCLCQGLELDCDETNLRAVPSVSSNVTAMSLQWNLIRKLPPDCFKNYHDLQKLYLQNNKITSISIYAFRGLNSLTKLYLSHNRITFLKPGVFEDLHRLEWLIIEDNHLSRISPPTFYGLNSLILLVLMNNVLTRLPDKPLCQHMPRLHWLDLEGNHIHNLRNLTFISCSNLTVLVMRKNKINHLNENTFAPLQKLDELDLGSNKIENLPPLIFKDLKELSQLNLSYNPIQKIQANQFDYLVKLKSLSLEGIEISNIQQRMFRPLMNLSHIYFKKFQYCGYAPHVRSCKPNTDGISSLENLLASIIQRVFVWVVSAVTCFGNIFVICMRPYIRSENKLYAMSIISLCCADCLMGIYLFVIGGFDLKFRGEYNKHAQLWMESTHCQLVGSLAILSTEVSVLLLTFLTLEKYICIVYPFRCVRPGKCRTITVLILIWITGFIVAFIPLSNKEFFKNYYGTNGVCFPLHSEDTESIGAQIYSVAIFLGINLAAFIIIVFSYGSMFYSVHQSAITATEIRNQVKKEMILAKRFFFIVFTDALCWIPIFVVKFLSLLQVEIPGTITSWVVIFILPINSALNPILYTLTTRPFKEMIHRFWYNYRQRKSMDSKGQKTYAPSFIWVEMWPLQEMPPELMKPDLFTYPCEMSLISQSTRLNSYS

B1: BM25/AN1-C13-CH3 (ligand)
chain 1: NLYSALANKCCHVGCTKRSLARFC
chain 2: ASWMEEVIKLCGRELVRAQIAICG[Phe(4-Ac)]STWS
modifications: disulfide (positions not given here); not fully specified (some residues); ends not checked; also: PK enhancer C13-CH3 oxime-linked to pAcF25
B2: AQ1-GGGGS-Glu^γ-C15-COOH (ligand)
chain 1: XLYSALANKCCHVGCTKRSLARFC
chain 2: ASWMEEVIKLCGRELVRAQIAICGMSTWS
peptide: GGGGSE
modifications: not fully specified; Glu^γ bonded by amide to fatty acid -C15-COOH; oxime-linked to pAcF of the A chain; pAcF (para-acetyl-L-phenylalanine) at position 1, oxime-linked to PK enhancer GGGGS-Glu^γ-C15-COOH
B3: AQ1-EEEEPEEEEPEEEEPEEEE-Glu^γ-C15-CH3 (ligand)
chain 1: XLYSALANKCCHVGCTKRSLARFC
chain 2: ASWMEEVIKLCGRELVRAQIAICGMSTWS
peptide: EEEEPEEEEPEEEEPEEEEE
modifications: not fully specified; Glu^γ bonded by amide to fatty acid -C15-CH3; oxime-linked to pAcF of the A chain; pAcF (para-acetyl-L-phenylalanine) at position 1, oxime-linked to PK enhancer EEEEPEEEEPEEEEPEEEE-Glu^γ-C15-CH3
B4: AQ1-EEEGGG-Glu^γ-C13-COOH (ligand)
chain 1: XLYSALANKCCHVGCTKRSLARFC
chain 2: ASWMEEVIKLCGRELVRAQIAICGMSTWS
peptide: EEEGGGE
modifications: not fully specified; Glu^γ bonded by amide to fatty acid -C13-COOH; oxime-linked to pAcF of the A chain; pAcF (para-acetyl-L-phenylalanine) at position 1, oxime-linked to PK enhancer EEEGGG-Glu^γ-C13-COOH
B5: AQ1-EEEEGEEEEGEEEEGEEEE-Gluγ-C14-CH3 (ligand)
chain 1: XLYSALANKCCHVGCTKRSLARFC
chain 2: ASWMEEVIKLCGRELVRAQIAICGMSTWS
peptide: EEEEGEEEEGEEEEGEEEEE
modifications: not fully specified; Glu^γ bonded by amide to fatty acid -C14-CH3; oxime-linked to pAcF of the A chain; pAcF (para-acetyl-L-phenylalanine) at position 1, oxime-linked to PK enhancer EEEEGEEEEGEEEEGEEEE-Gluγ-C14-CH3
B6: AQ1-KSGGSGG-Glu^γ-C13-COOH (ligand)
chain 1: XLYSALANKCCHVGCTKRSLARFC
chain 2: ASWMEEVIKLCGRELVRAQIAICGMSTWS
peptide: KSGGSGGE
modifications: not fully specified; Glu^γ bonded by amide to fatty acid -C13-COOH; oxime-linked to pAcF of the A chain; pAcF (para-acetyl-L-phenylalanine) at position 1, oxime-linked to PK enhancer KSGGSGG-Glu^γ-C13-COOH
B7: AQ1-GGGKKK-Glu^γ-C13-COOH (ligand)
chain 1: XLYSALANKCCHVGCTKRSLARFC
chain 2: ASWMEEVIKLCGRELVRAQIAICGMSTWS
peptide: GGGKKKE
modifications: not fully specified; Glu^γ bonded by amide to fatty acid -C13-COOH; oxime-linked to pAcF of the A chain; pAcF (para-acetyl-L-phenylalanine) at position 1, oxime-linked to PK enhancer GGGKKK-Glu^γ-C13-COOH
B8: AQ1-Sar-Sar-Sar-Sar-Ser-Sar-Sar-Sar-Sar-Glu^γ-C13-COOH (ligand)
chain 1: XLYSALANKCCHVGCTKRSLARFC
chain 2: ASWMEEVIKLCGRELVRAQIAICGMSTWS
peptide: XXXXSXXXXE
modifications: not fully specified; Sar = sarcosine (N-methylglycine); Glu^γ bonded by amide to fatty acid -C13-COOH; oxime-linked to pAcF of the A chain; pAcF (para-acetyl-L-phenylalanine) at position 1, oxime-linked to PK enhancer Sar-Sar-Sar-Sar-Ser-Sar-Sar-Sar-Sar-Glu^γ-C13-COOH
B9: AQ1-KKSGGSGGEE-Glu^γ-C13-COOH (ligand)
chain 1: XLYSALANKCCHVGCTKRSLARFC
chain 2: ASWMEEVIKLCGRELVRAQIAICGMSTWS
peptide: KKSGGSGGEEE
modifications: not fully specified; Glu^γ bonded by amide to fatty acid -C13-COOH; oxime-linked to pAcF of the A chain; pAcF (para-acetyl-L-phenylalanine) at position 1, oxime-linked to PK enhancer KKSGGSGGEE-Glu^γ-C13-COOH
B10: AQ1-EEEEPEEEEPEEEEPEEGGG-C14-CH3 (ligand)
chain 1: XLYSALANKCCHVGCTKRSLARFC
chain 2: ASWMEEVIKLCGRELVRAQIAICGMSTWS
peptide: EEEEPEEEEPEEEEPEEGGG
modifications: linked to fatty acid -C14-CH3; oxime-linked to pAcF of the A chain; pAcF (para-acetyl-L-phenylalanine) at position 1, oxime-linked to PK enhancer EEEEPEEEEPEEEEPEEGGG-C14-CH3
B11: AQ1-EEEGGG-Glu^γ-C13-CH3 (ligand)
chain 1: XLYSALANKCCHVGCTKRSLARFC
chain 2: ASWMEEVIKLCGRELVRAQIAICGMSTWS
peptide: EEEGGGE
modifications: not fully specified; Glu^γ bonded by amide to fatty acid -C13-CH3; oxime-linked to pAcF of the A chain; pAcF (para-acetyl-L-phenylalanine) at position 1, oxime-linked to PK enhancer EEEGGG-Glu^γ-C13-CH3
B12: AQ1-EEEGGG-Glu^γ-C15-COOH (ligand)
chain 1: XLYSALANKCCHVGCTKRSLARFC
chain 2: ASWMEEVIKLCGRELVRAQIAICGMSTWS
peptide: EEEGGGE
modifications: not fully specified; Glu^γ bonded by amide to fatty acid -C15-COOH; oxime-linked to pAcF of the A chain; pAcF (para-acetyl-L-phenylalanine) at position 1, oxime-linked to PK enhancer EEEGGG-Glu^γ-C15-COOH
B13: AQ1-DRDDRD-C13-COOH (ligand)
chain 1: XLYSALANKCCHVGCTKRSLARFC
chain 2: ASWMEEVIKLCGRELVRAQIAICGMSTWS
peptide: DRDDRD
modifications: linked to fatty acid -C13-COOH; oxime-linked to pAcF of the A chain; pAcF (para-acetyl-L-phenylalanine) at position 1, oxime-linked to PK enhancer DRDDRD-C13-COOH
B14: AQ1-EEEEPEEEEPEEEEPEEEE-Glu^γ-C14-CH3 (ligand)
chain 1: XLYSALANKCCHVGCTKRSLARFC
chain 2: ASWMEEVIKLCGRELVRAQIAICGMSTWS
peptide: EEEEPEEEEPEEEEPEEEEE
modifications: not fully specified; Glu^γ bonded by amide to fatty acid -C14-CH3; oxime-linked to pAcF of the A chain; pAcF (para-acetyl-L-phenylalanine) at position 1, oxime-linked to PK enhancer EEEEPEEEEPEEEEPEEEE-Glu^γ-C14-CH3
B15: AQ1-Sar-Sar-Sar-Sar-Ser-Glu^γ-C13-COOH (ligand)
chain 1: XLYSALANKCCHVGCTKRSLARFC
chain 2: ASWMEEVIKLCGRELVRAQIAICGMSTWS
peptide: XXXXSE
modifications: not fully specified; Sar = sarcosine (N-methylglycine); Glu^γ bonded by amide to fatty acid -C13-COOH; oxime-linked to pAcF of the A chain; pAcF (para-acetyl-L-phenylalanine) at position 1, oxime-linked to PK enhancer Sar-Sar-Sar-Sar-Ser-Glu^γ-C13-COOH
B16: AQ1-GGGEEE-Glu^γ-C13-COOH (ligand)
chain 1: XLYSALANKCCHVGCTKRSLARFC
chain 2: ASWMEEVIKLCGRELVRAQIAICGMSTWS
peptide: GGGEEEE
modifications: not fully specified; Glu^γ bonded by amide to fatty acid -C13-COOH; oxime-linked to pAcF of the A chain; pAcF (para-acetyl-L-phenylalanine) at position 1, oxime-linked to PK enhancer GGGEEE-Glu^γ-C13-COOH
B17: AQ1-EGGGGSK-Glu^γ-C13-COOH (ligand)
chain 1: XLYSALANKCCHVGCTKRSLARFC
chain 2: ASWMEEVIKLCGRELVRAQIAICGMSTWS
peptide: EGGGGSKE
modifications: not fully specified; Glu^γ bonded by amide to fatty acid -C13-COOH; oxime-linked to pAcF of the A chain; pAcF (para-acetyl-L-phenylalanine) at position 1, oxime-linked to PK enhancer EGGGGSK-Glu^γ-C13-COOH
B18: AQ1-KKSAGSAG-Glu^γ-C13-COOH (ligand)
chain 1: XLYSALANKCCHVGCTKRSLARFC
chain 2: ASWMEEVIKLCGRELVRAQIAICGMSTWS
peptide: KKSAGSAGE
modifications: not fully specified; Glu^γ bonded by amide to fatty acid -C13-COOH; oxime-linked to pAcF of the A chain; pAcF (para-acetyl-L-phenylalanine) at position 1, oxime-linked to PK enhancer KKSAGSAG-Glu^γ-C13-COOH
B19: RLX-AQ1 (ligand)
chain 1: XLYSALANKCCHVGCTKRSLARFC
chain 2: ASWMEEVIKLCGRELVRAQIAICGMSTWS
modifications: pAcF (para-acetyl-L-phenylalanine) at position 1
B20: AQ1-EEEGGG-Glu^γ-C14-COOH (ligand)
chain 1: XLYSALANKCCHVGCTKRSLARFC
chain 2: ASWMEEVIKLCGRELVRAQIAICGMSTWS
peptide: EEEGGGE
modifications: not fully specified; Glu^γ bonded by amide to fatty acid -C14-COOH; oxime-linked to pAcF of the A chain; pAcF (para-acetyl-L-phenylalanine) at position 1, oxime-linked to PK enhancer EEEGGG-Glu^γ-C14-COOH

Target: T1, human RXFP1 receptor
Experiment: cell-based or functional assay

| Binder | hRXFP1/CHO-K1 cAMP EC50 (nM, avg) [nM] |
| --- | --- |
| B1 | 1.85 |
| B2 | 1.55 |
| B3 | 0.34 |
| B4 | 0.31 |
| B5 | 0.67 |
| B6 | 0.24 |
| B7 | 0.19 |
| B8 | 0.39 |
| B9 | 0.16 |
| B10 | 0.16 |
| B11 | 0.38 |
| B12 | 5.26 |
| B13 | 0.32 |
| B14 | 0.33 |
| B15 | 0.32 |
| B16 | 0.22 |
| B17 | 0.31 |
| B18 | 0.27 |
| B19 | 0.11 |
| B20 | 1.88 |
